The target in the assay is T1, rPODXL-v2-Del-Fc fusion protein (human, UniProt O00592-2 23-429, highly glycosylated).
T1 construct: extracellular domain; In-frame fusion of the ECD and human IgG1 Fc, expressed in CHO-K1; The two deletions are written as substitutions to '-'; not shown: human IgG1 Fc from the pFUSE-hIgG1-Fc1 expression vector (InvivoGen)
T1 sequence (looked up): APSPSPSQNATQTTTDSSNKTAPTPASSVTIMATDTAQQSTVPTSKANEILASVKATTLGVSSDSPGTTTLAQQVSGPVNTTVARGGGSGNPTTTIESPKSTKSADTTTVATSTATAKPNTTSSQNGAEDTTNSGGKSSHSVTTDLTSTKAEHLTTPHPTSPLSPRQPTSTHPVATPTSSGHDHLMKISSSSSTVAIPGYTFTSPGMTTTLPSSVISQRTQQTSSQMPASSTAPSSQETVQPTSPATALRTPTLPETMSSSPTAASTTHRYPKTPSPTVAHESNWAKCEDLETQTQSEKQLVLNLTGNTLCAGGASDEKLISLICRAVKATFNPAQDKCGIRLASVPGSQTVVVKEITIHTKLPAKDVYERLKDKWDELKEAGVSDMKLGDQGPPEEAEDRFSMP
Briefly: BLI (Octet QKe), mAb captured on anti-mouse IgG Fc (AMC) biosensors, antigen in 1:2 serial dilutions. As for the experimental part: The Octet® QKe System (Molecular Devices, San Jose, Calif.) was used to determine the binding affinities between MAI1738 mAb and the extracellular domains of PODXL-v2 and PODXL-v2-Del. The MAI1738 mAb was immobilized to the Anti-Mouse IgG Fc Capture (AMC) biosensors, followed by loading of the antigen, rPODXL-v2-Fc or rPODXL-v2-Del-Fc, at 1:2 serial dilutions for 5 minutes. The assay was repeated multiple times to determine the average range of the affinity between MAI1738 and rPODXL-v2-Fc or rPODXL-v2-Del-Fc.
(In general: In BLI a coated tip is dipped into the sample, and binding shifts an interference pattern.)

B1: MAI1738 mAb (antibody, V domains shown)
VH: EVKLVESGGGLVKPGGSLKVSCAASGFTFSTYTMSWVRQTPEKRLEWVATISGGVIYTYYPDSVKGRFTISRDDAKNTLYLQMSSLRSEDTALYYCARHYSNYEGQGMDSWGQGTSVTVSS
VL: DIVLTQSPVTLSVTPGDSVSLSCRASQSINNNLHWYQQKSHESPRLLIKYASQSISGIPPRFSGSRSGTDFTLSINTVETEDFGVYFCQQSNSWPLTFGAGTKLELKR
notes: Mouse monoclonal antibody from a hybridoma (A/J mice); it is detected with anti-mouse IgG-Fc; also called anti-PODXL-v2 monoclonal antibody; second subclone of MS17-38
Take B1: binding was characterised by a dissociation constant (Kd) of 1.58 nM.
